Data: IntAct's records for PubMed 19732724

B1: Tensin-3 (Homo sapiens), Q68CZ2 (parent)
chain: MEEGHGLDLTYITERIIAVSFPAGCSEESYLHNLQEVTRMLKSKHGDNYLVLNLSEKRYDLTKLNPKIMDVGWPELHAPPLDKMCTICKAQESWLNSNLQHVVVIHCRGGKGRIGVVISSYMHFTNVSASADQALDRFAMKKFYDDKVSALMQPSQKRYVQFLSGLLSGSVKMNASPLFLHFVILHGTPNFDTGGVCRPFLKLYQAMQPVYTSGIYNVGPENPSRICIVIEPAQLLKGDVMVKCYHKKYRSATRDVIFRLQFHTGAVQGYGLVFGKEDLDNASKDDRFPDYGKVELVFSATPEKIQGSEHLYNDHGVIVDYNTTDPLIRWDSYENLSADGEVLHTQGPVDGSLYAKVRKKSSSDPGIPGGPQAIPATNSPDHSDHTLSVSSDSGHSTASARTDKTEERLAPGTRRGLSAQEKAELDQLLSGFGLEDPGSSLKEMTDARSKYSGTRHVVPAQVHVNGDAALKDRETDILDDEMPHHDLHSVDSLGTLSSSEGPQSAHLGPFTCHKSSQNSLLSDGFGSNVGEDPQGTLVPDLGLGMDGPYERERTFGSREPKQPQPLLRKPSVSAQMQAYGQSSYSTQTWVRQQQMVVAHQYSFAPDGEARLVSRCPADNPGLVQAQPRVPLTPTRGTSSRVAVQRGVGSGPHPPDTQQPSPSKAFKPRFPGDQVVNGAGPELSTGPSPGSPTLDIDQSIEQLNRLILELDPTFEPIPTHMNALGSQANGSVSPDSVGGGLRASSRLPDTGEGPSRATGRQGSSAEQPLGGRLRKLSLGQYDNDAGGQLPFSKCAWGKAGVDYAPNLPPFPSPADVKETMTPGYPQDLDIIDGRILSSKESMCSTPAFPVSPETPYVKTALRHPPFSPPEPPLSSPASQHKGGREPRSCPETLTHAVGMSESPIGPKSTMLRADASSTPSFQQAFASSCTISSNGPGQRRESSSSAERQWVESSPKPMVSLLGSGRPTGSPLSAEFSGTRKDSPVLSCFPPSELQAPFHSHELSLAEPPDSLAPPSSQAFLGFGTAPVGSGLPPEEDLGALLANSHGASPTPSIPLTATGAADNGFLSHNFLTVAPGHSSHHSPGLQGQGVTLPGQPPLPEKKRASEGDRSLGSVSPSSSGFSSPHSGSTISIPFPNVLPDFSKASEAASPLPDSPGDKLVIVKFVQDTSKFWYKADISREQAIAMLKDKEPGSFIVRDSHSFRGAYGLAMKVATPPPSVLQLNKKAGDLANELVRHFLIECTPKGVRLKGCSNEPYFGSLTALVCQHSITPLALPCKLLIPERDPLEEIAESSPQTAANSAAELLKQGAACNVWYLNSVEMESLTGHQAIQKALSITLVQEPPPVSTVVHFKVSAQGITLTDNQRKLFFRRHYPVNSVIFCALDPQDRKWIKDGPSSKVFGFVARKQGSATDNVCHLFAEHDPEQPASAIVNFVSKVMIGSPKKV
partner: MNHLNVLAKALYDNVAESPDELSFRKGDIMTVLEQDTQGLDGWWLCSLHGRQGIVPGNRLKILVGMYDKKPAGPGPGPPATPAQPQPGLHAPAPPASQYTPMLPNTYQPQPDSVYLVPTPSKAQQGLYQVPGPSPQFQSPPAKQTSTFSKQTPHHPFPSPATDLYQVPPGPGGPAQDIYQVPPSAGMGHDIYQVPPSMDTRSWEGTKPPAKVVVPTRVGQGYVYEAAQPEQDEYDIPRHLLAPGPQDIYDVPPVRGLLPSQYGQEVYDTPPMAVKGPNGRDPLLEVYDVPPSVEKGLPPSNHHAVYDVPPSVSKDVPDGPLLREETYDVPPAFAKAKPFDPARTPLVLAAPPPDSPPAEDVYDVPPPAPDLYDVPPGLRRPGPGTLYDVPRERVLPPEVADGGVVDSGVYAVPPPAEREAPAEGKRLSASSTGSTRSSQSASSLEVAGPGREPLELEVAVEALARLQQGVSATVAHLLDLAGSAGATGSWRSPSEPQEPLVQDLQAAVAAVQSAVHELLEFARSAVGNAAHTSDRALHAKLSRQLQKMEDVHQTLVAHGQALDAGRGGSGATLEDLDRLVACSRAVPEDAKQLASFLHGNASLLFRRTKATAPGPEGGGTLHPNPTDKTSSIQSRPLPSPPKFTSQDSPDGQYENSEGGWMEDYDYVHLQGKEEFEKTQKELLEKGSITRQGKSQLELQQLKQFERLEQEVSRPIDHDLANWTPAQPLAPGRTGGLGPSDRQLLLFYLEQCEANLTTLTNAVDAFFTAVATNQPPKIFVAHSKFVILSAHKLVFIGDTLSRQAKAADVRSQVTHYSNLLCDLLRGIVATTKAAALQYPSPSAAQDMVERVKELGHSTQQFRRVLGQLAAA

Variants of: B1
Conditions: with bcar1_human BCAR1, P56945

Row | effect of a mutation on the interaction | Variant
1 | decreasing interaction | Y1173F;Y1206F
